Laboratory results taken from the supplement of paper PMC12764529.
± gives the half width of the 95% confidence interval.

Assays:
[1] = folding stability dG unfold from chymotrypsin proteolysis; higher = more stable
Outline: (§1)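 Unfolding free energy was derived, per protease or combined, by relating Bayesian-fitted K50 values from sequencing counts to a sequence-predicted unfolded-state K50 and a shared folded-state K50. The underlying digests exposed cysteine-free mini-proteins under 80 residues, in a PA-tagged cDNA display construct, to trypsin and chymotrypsin at 11 threefold-diluted concentrations and to a no-protease condition. A filter kept only designs with AlphaFold2 dimer inter-PAE above 15.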

[2] = folding stability dG unfold from trypsin proteolysis; higher = more stable
Outline: as §1

[3] = folding stability dG unfold (combined trypsin and chymotrypsin); higher = more stable
Outline: as §1

Sequence | folding stability dG unfold [1] | folding stability dG unfold [2] | folding stability dG unfold [3]
SAGGSAGGSAGGWVIRVTIKHPNGKKRTIMIPMPPDNIEEVAKNLMPQGYEIKEPEIFPGSAGGSAGGSAGG [r7_159_TrROS] | 0.902 ± 0.36 kcal/mol | 0.295 ± 0.12 kcal/mol | 0.813 ± 0.26 kcal/mol
SAGGSAGGSAGGYLEAPIVIKIEFQIYDPDDGDPIATYEHTIMIPIEIELPPPPDPDNDSAGGSAGGSAGGS [r10_50_TrROS] | 2.28 ± 0.17 kcal/mol | 1.97 ± 0.21 kcal/mol | 2.18 ± 0.23 kcal/mol
SAGGSAGGSAGGYVGPDQPVIIVEVKVKGARIGKDGKIYYDFEVERIEIREVEEGDNLGSAGGSAGGSAGGS [r10_826_TrMRF] | 1.9 ± 0.088 kcal/mol | 2.05 ± 0.21 kcal/mol | 1.82 ± 0.17 kcal/mol
SAGGSAGGSAGIDPPDIKLRVESELGPGPVRRLLVYLEGPGELVLVDVPADGSVSVSIFPSAGGSAGGSAGG [r11_55_TrMRF] | 2.9 ± 0.28 kcal/mol | 2.85 ± 0.18 kcal/mol | 2.9 ± 0.23 kcal/mol
SAGGSAGGSAGIGSKKPVIKKNIEIEPEIKVEGGKGGSKVKIEYKAKIEIKVYIISKNNPSAGGSAGGSAGG [r17_186_TrMRF] | 2.15 ± 0.13 kcal/mol | 1.28 ± 0.22 kcal/mol | 1.98 ± 0.4 kcal/mol
SAGGSAGGSAGIKIEWEQMPGGYMQYKVTIPDPNGKPLKIDVHYKSPEDAEEKAKELLKSSAGGSAGGSAGG [r11_819_TrROS] | 0.386 ± 0.26 kcal/mol | 0.215 ± 0.089 kcal/mol | 0.333 ± 0.2 kcal/mol
SAGGSAGGSAGITIWFPYDNIPEILEEAQKNGMEIKSVERVPDGWYLIKMPGKPIEIHIWSAGGSAGGSAGG [r17_379_TrROS] | 1.55 ± 0.06 kcal/mol | 0.94 ± 0.032 kcal/mol | 1.33 ± 0.07 kcal/mol
SAGGSAGGSAGIWIPIKDPKEAVDYIQEWFHKKGGYDINIEPTEVYPDGWVRVEINIEPKSAGGSAGGSAGG [r17_430_TrROS] | 1.26 ± 0.18 kcal/mol | 0.151 ± 0.1 kcal/mol | 1.06 ± 0.26 kcal/mol
SAGGSAGGSAGKAKIEVVEVDKNGKVRLKIKLENGEVKEIENADEITINGKKIKVEKIEPSAGGSAGGSAGG [r11_1017_TrROS_Hall] | 1.52 ± 0.042 kcal/mol | -0.311 ± 0.25 kcal/mol | 1.11 ± 0.1 kcal/mol
SAGGSAGGSAGKDIAKNIPPGAKILPIEPQPRGGGLYVKIEIEMPDPNGKKEKVTFTFPISAGGSAGGSAGG [r17_140_TrROS] | 0.589 ± 0.26 kcal/mol | -0.467 ± 0.14 kcal/mol | 0.366 ± 0.26 kcal/mol
SAGGSAGGSAGKEEIKIEITKVEPLEDGSYIAEVIATPKNGKKIPYTALIDPKTGKITIGSAGGSAGGSAGG [r11_31_TrMRF] | 0.18 ± 0.14 kcal/mol | 0.527 ± 0.11 kcal/mol | 0.426 ± 0.087 kcal/mol
SAGGSAGGSAGKIEIDPSKPALVRVRLVPENGIPREIVVEAGDLSKLLPENFKVLSIELGSAGGSAGGSAGG [r17_449_TrMRF] | 0.397 ± 0.06 kcal/mol | 0.295 ± 0.09 kcal/mol | 0.407 ± 0.067 kcal/mol
SAGGSAGGSAGKIELTNIQVWPGPNGRPWISMTISFPDGPVTIWIPFDNPDNIEIEIKPGSAGGSAGGSAGG [r17_64_TrROS] | 3.02 ± 0.043 kcal/mol | 2.63 ± 0.1 kcal/mol | 2.82 ± 0.084 kcal/mol
SAGGSAGGSAGKIEVEGDVEVTVFPPYGLATVTTPNGERYVLLVETRPDGSKRVLLFSAGSAGGSAGGSAGG [r11_331_TrMRF] | 2.37 ± 0.026 kcal/mol | 2.02 ± 0.039 kcal/mol | 2.26 ± 0.045 kcal/mol
SAGGSAGGSAGKIKIEKDKNGNYRVILKNGKVYEFKSIEEAKEELKKKFPNIKEIEIVKTSAGGSAGGSAGG [r11_806_TrROS_Hall] | 4.29 ± 0.29 kcal/mol | 3.21 ± 0.18 kcal/mol | 3.87 ± 0.3 kcal/mol
SAGGSAGGSAGKIRDPNGNPFQIKDVEVEPPGPGDPYISIEYPDNGEEFTLPPEDAEDLFSAGGSAGGSAGG [r17_517_TrROS] | 2.13 ± 0.052 kcal/mol | 0.95 ± 0.038 kcal/mol | 1.64 ± 0.27 kcal/mol
SAGGSAGGSAGKKEKVILLPVDAEPDETPEELAKKLKELNPDVEVLGFDPETGYVLVKVPSAGGSAGGSAGG [r11_465_TrMRF] | -0.0143 ± 0.28 kcal/mol | 0.107 ± 0.053 kcal/mol | 0.149 ± 0.18 kcal/mol
SAGGSAGGSAGKKELTFKDKNGKTITVTLEDGEIKEIKIEKPPKPKVVKTEKKYVPKEELSAGGSAGGSAGG [r17_287_TrROS_Hall] | 0.0761 ± 0.069 kcal/mol | 0.0355 ± 0.16 kcal/mol | 0.135 ± 0.4 kcal/mol

Sequence | folding stability dG unfold [1] | folding stability dG unfold [2] | folding stability dG unfold [3]
SAGGSAGGSAGKKITIPNLDVMRNPDDGMAFIQFGGQMIMIPPNVKIEQDPNGWMEIELPSAGGSAGGSAGG [r17_34_TrROS] | -0.845 ± 0.69 kcal/mol | 0.625 ± 0.064 kcal/mol | 0.144 ± 0.12 kcal/mol
SAGGSAGGSAGKKITLPNATITYDEETGEVTITVDGKTITLPPGAKIEVDENGNLTIYLPSAGGSAGGSAGG [r17_34_TrROS_Hall] | 2.71 ± 0.075 kcal/mol | 2.45 ± 0.1 kcal/mol | 2.55 ± 0.12 kcal/mol
SAGGSAGGSAGKKKILLKFKSAEEALEAIKKGKTIKLKNGKTVKVKKVTLDKNGYLLIELSAGGSAGGSAGG [r11_48_TrROS_Hall] | 2.547 ± 0.021 kcal/mol | 2.23 ± 0.034 kcal/mol | 2.44 ± 0.06 kcal/mol
SAGGSAGGSAGKKKKIFLIKIEVVKVKVEKRKKKDGKLEEKVEIEIKIEITEIPLPPELLSAGGSAGGSAGG [r11_24_TrROS_Hall] | 3.02 ± 0.058 kcal/mol | 2.81 ± 0.12 kcal/mol | 2.94 ± 0.19 kcal/mol
SAGGSAGGSAGKKKKKPKPIVLVIKVKTKEEAEKLAEKLKELGFKVEIVEKKDGYLVIKLSAGGSAGGSAGG [r17_323_TrROS_Hall] | 3.8 ± 0.15 kcal/mol | 2.11 ± 0.12 kcal/mol | 3.39 ± 0.18 kcal/mol
SAGGSAGGSAGKKKLRLTLPGAEVEYDAATNELTIRLKAPPPPPKTTTKVETKTVLLPGKSAGGSAGGSAGG [r11_149_TrROS_Hall] | 1.2 ± 0.095 kcal/mol | 0.792 ± 0.076 kcal/mol | 0.989 ± 0.18 kcal/mol
SAGGSAGGSAGKKTVVIKDAEIVEVEEENGYLKVRIKVTNPDGSEEEFTFTFKPGDVIELSAGGSAGGSAGG [r11_211_TrROS_Hall] | 3.11 ± 0.059 kcal/mol | 2.01 ± 0.07 kcal/mol | 2.71 ± 0.17 kcal/mol
SAGGSAGGSAGKKVLVLSEDEIAELLGLSKEEIENMSEEEKEKLALELAKKLGIDEVIITSAGGSAGGSAGG [r11_80_TrROS_Hall] | 3.31 ± 0.094 kcal/mol | 3.76 ± 0.11 kcal/mol | 3.54 ± 0.055 kcal/mol
SAGGSAGGSAGKLKIKKVKVVKTETFTLPNGYTIKVSYVEVEVDGKKYLFKSVEIYPKKESAGGSAGGSAGG [r11_129_TrROS_Hall] | 3.09 ± 0.033 kcal/mol | 2.02 ± 0.1 kcal/mol | 2.85 ± 0.15 kcal/mol
SAGGSAGGSAGKLPPGAKVEEVFEVEIEVTYLNPDTGEEVEKEKITVRVVKVDGKLVIEFSAGGSAGGSAGG [r11_415_TrROS_Hall] | 2.79 ± 0.31 kcal/mol | 1.39 ± 0.11 kcal/mol | 2.04 ± 0.25 kcal/mol
SAGGSAGGSAGKLYIIRIKGKKIILSEDEVEKLKKKYPNAEIIPFKSKEDAEKALKKLKESAGGSAGGSAGG [r11_60_TrROS_Hall] | 2.75 ± 0.079 kcal/mol | 2.16 ± 0.057 kcal/mol | 2.52 ± 0.13 kcal/mol
SAGGSAGGSAGKMKIRVKIKRKDGKTLVIEGMSLEEIKELAEKEGFEIEKVEVVEVEPEESAGGSAGGSAGG [r11_283_TrROS_Hall] | 4.24 ± 0.13 kcal/mol | 3.23 ± 0.26 kcal/mol | 4.02 ± 0.21 kcal/mol
SAGGSAGGSAGKMLLIEIEVDGKKYLIEIEVPEGEEITPEELAKLLGIPNVKVKVYELEESAGGSAGGSAGG [r11_219_TrROS_Hall] | 3.41 ± 0.04 kcal/mol | 2.47 ± 0.065 kcal/mol | 3.11 ± 0.13 kcal/mol
SAGGSAGGSAGKMYRITVTNENGEKLEIEVPEEVKTEEELKEELKKKIPNVVEVKIEEVPSAGGSAGGSAGG [r11_311_TrROS_Hall] | 0.433 ± 0.14 kcal/mol | 0.242 ± 0.096 kcal/mol | 0.377 ± 0.25 kcal/mol
SAGGSAGGSAGKPEVEVETRLIKIDEEKGYYLRVTRVRVKNEDGSEFEFLSIEIIPKEDLSAGGSAGGSAGG [r11_51_TrROS_Hall] | 3.91 ± 0.052 kcal/mol | 2.6 ± 0.098 kcal/mol | 3.56 ± 0.071 kcal/mol
SAGGSAGGSAGKPKKKPPKPKIETKTITVTITNKDGSKTTVTATIVRNKDTNELFIRISSSAGGSAGGSAGG [r11_1024_TrROS_Hall] | 3.13 ± 0.12 kcal/mol | 3.07 ± 0.16 kcal/mol | 2.98 ± 0.22 kcal/mol
SAGGSAGGSAGKPLKVKKFEVELLVRDPETNRWYRIRAEVYRVEGLPDLFIIKLEIEELPSAGGSAGGSAGG [r11_1029_TrROS_Hall] | 4.82 ± 0.099 kcal/mol | 3.96 ± 0.12 kcal/mol | 4.6 ± 0.11 kcal/mol
